For this assay, the target named is SARS-CoV-2 Nsp15 catalytically inactive mutant H234A (SARS-CoV-2). Kind of assay: cryo-EM structure.

Consider “SARS-CoV-2 Nsp15 catalytically inactive mutant H234A (enzyme)”, for which the stoichiometry N turned out to be 6.

The term stoichiometry N denotes a count of units in the complex or per binding partner.
